The source of these data is PMC3141240.

T1: KSHV SOX (alkaline exonuclease) (Kaposi's sarcoma-associated herpesvirus …, UniProt P88925 1-486)
T1 sequence: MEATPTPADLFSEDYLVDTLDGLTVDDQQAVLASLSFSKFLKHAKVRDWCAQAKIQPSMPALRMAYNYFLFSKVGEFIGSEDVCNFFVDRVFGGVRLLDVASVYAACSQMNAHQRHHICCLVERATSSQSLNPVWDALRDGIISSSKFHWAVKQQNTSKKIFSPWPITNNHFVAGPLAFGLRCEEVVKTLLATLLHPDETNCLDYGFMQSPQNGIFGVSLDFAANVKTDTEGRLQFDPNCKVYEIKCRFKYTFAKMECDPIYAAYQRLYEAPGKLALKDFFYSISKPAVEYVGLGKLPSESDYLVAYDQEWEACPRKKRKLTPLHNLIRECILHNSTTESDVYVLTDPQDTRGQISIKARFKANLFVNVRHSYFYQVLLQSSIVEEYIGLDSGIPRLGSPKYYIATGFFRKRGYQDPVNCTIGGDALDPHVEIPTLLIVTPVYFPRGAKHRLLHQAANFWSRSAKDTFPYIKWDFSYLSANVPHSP

B1: dsRNA-5'P (dsRNA)
RNA 1: UGGUUUACAUGUUCCAAUAUU
RNA 2: AAUAUUGGAACAUGUAAACCA
modifications: 5' phosphate on strand 1
B2: dsDNA-5'P (dsDNA)
DNA 1: GGGGATCCTCCCAGTCGACC
DNA 2: GGTCGACTAGGAGGATCCCC
modifications: 5' phosphate on strand 1

This data set addresses T1, KSHV SOX (alkaline exonuclease). Kind of data set: fluorescence anisotropy.
By Kd is commonly meant the concentration at which binding is half-saturated. Lower therefore signals tighter binding. In turn, B1 registered a Kd of 95 µM.
As for B2, the figure is 6 µM; as for UGGUUUACAUGUUCCAAUAUU (ssRNA, 5' phosphate) [ssRNA-5'P], 87 µM.
